The target of the experiment is T1, recombinant human αvβ3 (human, UniProt P06756 31-992; P05106 27-718).
T1 construct: integrin αv, human; integrin β3, human; also called soluble αvβ3; recombinant αvβ3; source: bought: Calbiochem (Merck)
As to the kind of experiment: ELISA; solid-phase direct binding assay: 96-well plates coated overnight with 10 μg/ml β43–63 or 0.5 μg/ml vitronectin, blocked with 5% BSA in PBS; recombinant αvβ3 incubated 1.5 h; detected with anti-αvβ3 antibody, anti-mouse-HRP and OPD, read at 450 nm; nonspecific binding to plastic subtracted. As to conditions: both partners purified.

T1 sequence (P06756 31-992, chain 1 of 2): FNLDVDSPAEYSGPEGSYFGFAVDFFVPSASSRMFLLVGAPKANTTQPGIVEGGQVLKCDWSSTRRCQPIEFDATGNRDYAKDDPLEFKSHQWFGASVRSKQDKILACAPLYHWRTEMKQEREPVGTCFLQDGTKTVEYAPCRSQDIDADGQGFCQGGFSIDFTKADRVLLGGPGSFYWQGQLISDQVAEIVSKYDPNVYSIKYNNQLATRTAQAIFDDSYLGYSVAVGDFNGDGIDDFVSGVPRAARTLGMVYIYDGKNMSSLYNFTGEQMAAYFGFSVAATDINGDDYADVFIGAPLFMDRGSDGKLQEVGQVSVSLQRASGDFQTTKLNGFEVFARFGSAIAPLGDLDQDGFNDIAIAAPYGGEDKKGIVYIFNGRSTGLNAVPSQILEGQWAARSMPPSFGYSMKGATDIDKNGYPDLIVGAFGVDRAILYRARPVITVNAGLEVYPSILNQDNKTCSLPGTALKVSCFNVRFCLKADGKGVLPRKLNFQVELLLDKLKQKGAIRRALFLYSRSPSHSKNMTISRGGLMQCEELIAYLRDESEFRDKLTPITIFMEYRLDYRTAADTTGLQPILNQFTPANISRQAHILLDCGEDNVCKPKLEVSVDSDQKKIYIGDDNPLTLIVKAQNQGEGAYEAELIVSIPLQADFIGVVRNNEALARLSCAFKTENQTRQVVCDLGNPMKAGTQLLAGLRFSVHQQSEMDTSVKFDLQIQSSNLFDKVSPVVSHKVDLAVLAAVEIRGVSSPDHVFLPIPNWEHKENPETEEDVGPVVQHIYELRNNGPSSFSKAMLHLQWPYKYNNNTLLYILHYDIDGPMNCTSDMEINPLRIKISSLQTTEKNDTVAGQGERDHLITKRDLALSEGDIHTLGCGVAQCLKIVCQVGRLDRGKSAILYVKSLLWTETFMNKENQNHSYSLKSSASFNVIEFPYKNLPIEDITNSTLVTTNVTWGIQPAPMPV
T1 sequence (P05106 27-718, chain 2 of 2): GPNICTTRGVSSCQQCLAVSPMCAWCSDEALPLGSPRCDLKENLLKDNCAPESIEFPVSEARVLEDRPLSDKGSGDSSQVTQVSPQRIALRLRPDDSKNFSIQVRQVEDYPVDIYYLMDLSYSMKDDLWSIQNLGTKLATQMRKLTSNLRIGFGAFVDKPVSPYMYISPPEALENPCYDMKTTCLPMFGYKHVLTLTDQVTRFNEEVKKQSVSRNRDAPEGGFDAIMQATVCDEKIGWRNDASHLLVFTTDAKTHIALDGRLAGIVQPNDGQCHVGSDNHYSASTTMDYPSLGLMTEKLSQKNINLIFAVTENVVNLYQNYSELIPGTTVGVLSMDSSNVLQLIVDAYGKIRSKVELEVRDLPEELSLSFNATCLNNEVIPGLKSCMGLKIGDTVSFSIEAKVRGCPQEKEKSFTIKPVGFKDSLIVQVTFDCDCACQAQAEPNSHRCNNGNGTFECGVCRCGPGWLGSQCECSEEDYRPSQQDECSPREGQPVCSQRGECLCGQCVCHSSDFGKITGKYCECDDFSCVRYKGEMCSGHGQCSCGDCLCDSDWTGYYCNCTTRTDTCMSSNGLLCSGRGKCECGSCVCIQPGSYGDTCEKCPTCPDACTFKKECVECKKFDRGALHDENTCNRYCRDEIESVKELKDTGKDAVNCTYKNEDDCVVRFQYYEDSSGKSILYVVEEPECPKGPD

B1: β43–63, 20-amino-acid peptide derived from the β chain of human fibrinogen E-fragment (peptide)
peptide: ARPAKAAATQKKVERKAPDA
notes: human fibrinogen β chain, N terminus of the β chain of FgnE, named amino acids 43–63; source: synthetic peptide (GenScript Corporation)
Regarding B1, the binding result is on record as “binds”.
